Assay results taken from article doi:10.1101/751602 (bioRxiv, 2019).
One block for each molecule: values may come before it.

Legend:
[1] = target: AtBAM2 with the Ndel1 truncation (Arabidopsis thaliana) (UniProt O65258); assay: small-angle X-ray scattering
[2] = target: the molecule itself; assay: small-angle X-ray scattering

stoichiometry N [1]: 4
Molecule: AtBAM2 with the Ndel1 truncation (from UniProt O65258 86-542) (domain or fragment)

B1: Arabidopsis thaliana β-amylase2 (AtBAM2), wild type (enzyme, UniProt O65258 56-542, looked up)
chain: AESTEEDRVPIDDDDDSTDQLVDEEIVHFEERDFAGTACVPVYVMLPLGVIDMNSEVVEPEELLDQLRTLKSVNVDGVMVDCWWGIVESHTPQVYNWSGYKKLFQMIRELGLKIQVVMSFHECGGNVGDDVHIQIPEWVREIGQSNPDIYFTDSAGRRNTECLTWGIDKQRVLRGRTALEVYFDYMRSFRVEFDEFFEEKIIPEIEVGLGPCGELRYPSYPAQFGWKYPGIGEFQCYDKYLMNSLKEAAEVRGHSFWGRGPDNTETYNSTPHGTGFFRDGGDYDSYYGRFFLNWYSRVLIDHGDRVLAMANLAFEGTCIAAKLSGIHWWYKTASHAAELTAGFYNSSNRDGYGPIAAMFKKHDAALNFTCVELRTLDQHEDFPEALADPEGLVWQVLNAAWDASIPVASENALPCYDREGYNKILENAKPLTDPDGRHLSCFTYLRLNPTLMESQNFKEFERFLKRMHGEAVPDLGLAPGTQETNPE
stoichiometry N [2]: 4
